# Source: US20180244758A1 (MAPP BIOPHARMACEUTICAL, published 2018)
# Positions count from the first letter of the chain named.
# T1: TAFV GP on VSV pseudotype particles (Tai Forest virus (TAFV), UniProt Q66810 33-676)
# T1 sequence: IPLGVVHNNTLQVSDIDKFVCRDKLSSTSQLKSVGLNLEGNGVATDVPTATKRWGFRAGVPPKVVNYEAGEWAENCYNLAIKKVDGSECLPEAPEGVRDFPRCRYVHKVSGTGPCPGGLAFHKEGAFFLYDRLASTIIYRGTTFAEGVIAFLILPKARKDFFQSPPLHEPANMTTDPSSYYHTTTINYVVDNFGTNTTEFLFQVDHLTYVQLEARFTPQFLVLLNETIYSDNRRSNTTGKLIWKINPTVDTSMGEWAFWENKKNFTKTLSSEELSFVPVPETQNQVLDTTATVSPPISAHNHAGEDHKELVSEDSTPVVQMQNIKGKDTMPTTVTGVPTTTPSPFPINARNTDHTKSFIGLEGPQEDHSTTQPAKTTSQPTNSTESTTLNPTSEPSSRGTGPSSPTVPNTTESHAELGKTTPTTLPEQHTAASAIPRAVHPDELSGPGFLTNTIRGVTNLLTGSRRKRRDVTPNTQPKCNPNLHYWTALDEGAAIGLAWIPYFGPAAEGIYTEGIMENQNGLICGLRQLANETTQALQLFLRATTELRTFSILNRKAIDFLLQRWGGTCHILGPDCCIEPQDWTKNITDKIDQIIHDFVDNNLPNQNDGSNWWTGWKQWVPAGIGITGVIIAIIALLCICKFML
# T2: RESTV GP on rVSV particles (Reston virus (RESTV), UniProt Q66799 34-677)
# T2 sequence: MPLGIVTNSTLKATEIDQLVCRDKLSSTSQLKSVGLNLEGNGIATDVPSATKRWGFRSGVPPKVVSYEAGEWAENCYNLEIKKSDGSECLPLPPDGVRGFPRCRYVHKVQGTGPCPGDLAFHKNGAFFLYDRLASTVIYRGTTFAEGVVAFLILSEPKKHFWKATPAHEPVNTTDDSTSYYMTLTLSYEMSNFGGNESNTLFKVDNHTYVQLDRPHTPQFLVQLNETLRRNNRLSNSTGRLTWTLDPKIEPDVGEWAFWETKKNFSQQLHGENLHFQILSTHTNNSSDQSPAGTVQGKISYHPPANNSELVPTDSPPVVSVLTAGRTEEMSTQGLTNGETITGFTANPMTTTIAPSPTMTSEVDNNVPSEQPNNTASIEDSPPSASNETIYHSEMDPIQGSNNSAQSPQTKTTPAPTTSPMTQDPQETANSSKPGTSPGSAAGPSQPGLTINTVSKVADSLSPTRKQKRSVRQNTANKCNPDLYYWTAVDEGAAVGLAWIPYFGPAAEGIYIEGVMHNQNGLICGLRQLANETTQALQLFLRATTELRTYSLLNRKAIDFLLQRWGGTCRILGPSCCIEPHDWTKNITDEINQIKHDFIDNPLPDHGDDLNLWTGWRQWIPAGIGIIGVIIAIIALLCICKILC
# T3: EBOV GPCL on cleaved VSV-GP particles (Ebola virus (EBOV), UniProt Q05320 33-676)
# T3 sequence: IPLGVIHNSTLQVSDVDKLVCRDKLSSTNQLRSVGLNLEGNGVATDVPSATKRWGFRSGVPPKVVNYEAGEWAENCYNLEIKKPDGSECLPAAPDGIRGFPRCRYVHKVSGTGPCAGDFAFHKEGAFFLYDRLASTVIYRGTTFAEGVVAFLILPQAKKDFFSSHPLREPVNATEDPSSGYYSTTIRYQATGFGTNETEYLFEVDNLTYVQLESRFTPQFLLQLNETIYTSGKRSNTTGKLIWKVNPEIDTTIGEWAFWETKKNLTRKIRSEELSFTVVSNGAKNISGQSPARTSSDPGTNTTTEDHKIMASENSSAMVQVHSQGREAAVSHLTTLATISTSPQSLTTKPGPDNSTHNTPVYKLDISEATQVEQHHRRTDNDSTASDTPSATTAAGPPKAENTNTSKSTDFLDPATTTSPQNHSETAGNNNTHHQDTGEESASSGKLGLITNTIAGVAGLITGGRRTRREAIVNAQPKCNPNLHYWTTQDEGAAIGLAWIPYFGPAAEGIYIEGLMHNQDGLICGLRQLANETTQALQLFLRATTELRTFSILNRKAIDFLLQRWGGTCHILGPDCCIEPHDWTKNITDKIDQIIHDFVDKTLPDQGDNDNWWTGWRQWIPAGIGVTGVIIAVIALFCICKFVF
# T4: GP of authentic (wild-type) SUDV (Sudan virus (SUDV), UniProt Q66814 33-676)
# T4 sequence: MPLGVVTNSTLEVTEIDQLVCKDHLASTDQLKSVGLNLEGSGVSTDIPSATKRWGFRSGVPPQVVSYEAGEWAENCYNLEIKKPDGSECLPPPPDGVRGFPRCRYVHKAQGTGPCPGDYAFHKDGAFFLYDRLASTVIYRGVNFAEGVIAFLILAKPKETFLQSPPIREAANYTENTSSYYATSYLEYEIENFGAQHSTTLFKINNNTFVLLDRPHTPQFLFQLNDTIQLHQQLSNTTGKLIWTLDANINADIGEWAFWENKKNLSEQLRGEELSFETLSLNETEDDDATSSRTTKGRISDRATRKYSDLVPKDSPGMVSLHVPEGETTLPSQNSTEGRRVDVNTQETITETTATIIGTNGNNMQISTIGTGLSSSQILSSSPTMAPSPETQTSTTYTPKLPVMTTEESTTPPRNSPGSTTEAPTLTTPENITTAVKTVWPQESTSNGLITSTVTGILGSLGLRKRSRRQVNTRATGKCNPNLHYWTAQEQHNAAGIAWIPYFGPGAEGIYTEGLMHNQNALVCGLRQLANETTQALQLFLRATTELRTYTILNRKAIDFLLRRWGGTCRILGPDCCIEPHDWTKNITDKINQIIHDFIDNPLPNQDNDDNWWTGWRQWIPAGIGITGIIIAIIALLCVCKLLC
# T5: SUDV GP on rVSV particles (Sudan virus (SUDV), UniProt Q66814 33-676)
# T5 sequence: T4 sequence
# T6: EBOV GP on rVSV particles (Ebola virus (EBOV), UniProt Q05320 33-676)
# T6 sequence: T3 sequence
# B1: mAb PE-05 (antibody, V domains shown)
# VH: QVQLQESGGGLVKPGRSLRLSCTASGFTFGDYAMSWFRQAPGKGLEWVGFLRSKAYGGTAEYAASVKGRFTMSRDDSKSIAYLQMNSLKTEDTAVYFCTRDGFRGSSWGYSYYGMDVWGQGTTVTVSS
# VL: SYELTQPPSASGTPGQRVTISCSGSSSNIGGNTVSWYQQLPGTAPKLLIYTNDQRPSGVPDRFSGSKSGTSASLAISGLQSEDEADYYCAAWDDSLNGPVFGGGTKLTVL
# B2: mAb PE-16 (antibody, V domains shown)
# VH: QVQLVQSGAEVTKPGASVKVSCKASGYTFTTYYMHWVRQAPGQGLEWVGIINPSGGITRYAQKFQGRVTLTRDTSTTTVYMELSSLRSEDTAVYYCARDRYPVLFATDYGMDVWGQGTTVTVSS
# VL: DIVMTQSPATLSLSPGERATLSCRASQSVSGYLAWYQQKPGQAPRLLIYDASNRATGIPARFSGSGSGTDFTLTISSLEPEDFAVYYCQQRSIWPPGVTFGGGTKVEIK
# B3: mAb PE-87 (antibody, V domains shown)
# VH: QVQLVQSGVTLVQPGGSLRVSCAASGFTFSSYAMSWVRQAPGKGLEWVSAISGLGGSTYYADSVKGRFTISRDNSKNTLYLQMNSLRAEDTAVYYCAKDHRVWAAGYHFDYWGQGALVTVSS
# VL: DIVLTQSPSTLSASVGDRVTITCRASQSISSWLAWYQQKPGEAPKLLISDASSLESGVPSRFSGSGSGTEFTLTISSLQPDDFATYYCQQYYSSPTFGGGTKVEIK
# B4: mAb PE-24 (antibody, V domains shown)
# VH: EVQLVESGGGLVQPGGSLRLSCAASGFTFSSYAMSWVRQAPGKGLEWVSEISGLGGSTYYADSAKGRFTISRDNSKSTLYLQMNSLRAEDTAVYYCAKDHRVWAPGYYFDHWGQGTLVTVSS
# VL: B3 VL with E42K, S49Y, Y87F, Y92N, S93R
# B5: mAb PE-47 (antibody, V domains shown)
# VH: EVQLVESGGGLVKPGGSLRLSCAASGFTFSNAWMSWVRQAPGEGLEWVGRIKSKTDGGTIDYAAPVKGRFTISRDDSKNTVYLQMTSLKTEDTAVYYCTTYTEDMQYFDWLLRGGETFDYWGQGTLVTVSS
# VL: DIQMTQSPSSLSASVGDRVTITCRASQYISTYLNWYQQKPGKAPKLLIYAAYNLQSGVPSRFSGSGSGTDFTLTISSLQPEDFATYYCQQSYSTPGRYTFGQGTKVEIK
# Target: T1, TAFV GP on VSV pseudotype particles
# Experiment: cell-based or functional assay
row,Binder,"Neutralization (VSV-GP IC50, nM)"
1,B1,0.8 nM
2,B2,4.8 nM
3,B3,1 nM
4,B4,1.5 nM
5,B5,6.1 nM

# Target: T2, RESTV GP on rVSV particles
# Experiment: cell-based or functional assay
row,Binder,"Neutralization (VSV-GP IC50, nM)"
1,B1,22 nM
2,B3,0.2 nM
3,B4,0.2 nM

# Target: BDBV GP on rVSV particles (Bundibugyo virus (BDBV))
# Experiment: cell-based or functional assay
row,Binder,"Neutralization (VSV-GP IC50, nM)"
1,B1,3.7 nM
2,B2,0.6 nM
3,B3,0.5 nM
4,B4,0.8 nM
5,B5,0.4 nM

# Target: T3, EBOV GPCL on cleaved VSV-GP particles
# Experiment: cell-based or functional assay
row,Binder,"Neutralization (VSV-GP IC50, nM)"
1,B2,5.7 nM
2,B3,0.2 nM
3,B4,0.6 nM
4,B5,0.08 nM

# Target: T4, GP of authentic (wild-type) SUDV
# Experiment: cell-based or functional assay
row,Binder,Microneut. WT IC50
1,B3,0.3 nM
2,B4,0.4 nM
3,B5,< 0.1 nM

# Target: T5, SUDV GP on rVSV particles
# Experiment: cell-based or functional assay
row,Binder,"Neutralization (VSV-GP IC50, nM)"
1,B1,34 nM
2,B3,0.3 nM
3,B4,0.5 nM
4,B5,5.1 nM

# Target: T6, EBOV GP on rVSV particles
# Experiment: cell-based or functional assay
row,Binder,"Neutralization (VSV-GP IC50, nM)"
1,B1,8.8 nM
2,B2,0.2 nM
3,B3,0.5 nM
4,B4,1.8 nM
5,B5,6.6 nM
